Measured values published in US20240238433A1 (published 2024).

T1: In-house produced Avi-tagged N256A mutated CEACAM6 (UniProt P40199 35-320)
T1 chain: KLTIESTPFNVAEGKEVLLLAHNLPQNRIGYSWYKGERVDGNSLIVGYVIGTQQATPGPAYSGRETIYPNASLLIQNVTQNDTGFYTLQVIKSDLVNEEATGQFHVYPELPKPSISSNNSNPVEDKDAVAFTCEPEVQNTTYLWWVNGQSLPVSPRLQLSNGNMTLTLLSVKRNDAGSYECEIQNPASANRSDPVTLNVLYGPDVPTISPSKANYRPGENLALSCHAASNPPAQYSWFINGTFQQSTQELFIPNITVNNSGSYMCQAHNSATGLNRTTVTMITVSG

T2: In-house produced Avi-tagged CEACAM6 (UniProt P40199 35-320)
T2 chain: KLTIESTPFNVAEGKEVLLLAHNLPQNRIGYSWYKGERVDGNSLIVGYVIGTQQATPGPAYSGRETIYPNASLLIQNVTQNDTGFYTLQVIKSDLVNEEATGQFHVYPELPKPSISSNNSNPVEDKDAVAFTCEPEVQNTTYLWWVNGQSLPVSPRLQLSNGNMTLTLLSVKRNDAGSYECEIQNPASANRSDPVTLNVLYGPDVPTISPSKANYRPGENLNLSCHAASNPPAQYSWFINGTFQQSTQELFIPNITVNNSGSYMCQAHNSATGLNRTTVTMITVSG

T3: In-house produced Avi-tagged N256A mutated CEACAM5 (UniProt P06731 35-685)
T3 chain: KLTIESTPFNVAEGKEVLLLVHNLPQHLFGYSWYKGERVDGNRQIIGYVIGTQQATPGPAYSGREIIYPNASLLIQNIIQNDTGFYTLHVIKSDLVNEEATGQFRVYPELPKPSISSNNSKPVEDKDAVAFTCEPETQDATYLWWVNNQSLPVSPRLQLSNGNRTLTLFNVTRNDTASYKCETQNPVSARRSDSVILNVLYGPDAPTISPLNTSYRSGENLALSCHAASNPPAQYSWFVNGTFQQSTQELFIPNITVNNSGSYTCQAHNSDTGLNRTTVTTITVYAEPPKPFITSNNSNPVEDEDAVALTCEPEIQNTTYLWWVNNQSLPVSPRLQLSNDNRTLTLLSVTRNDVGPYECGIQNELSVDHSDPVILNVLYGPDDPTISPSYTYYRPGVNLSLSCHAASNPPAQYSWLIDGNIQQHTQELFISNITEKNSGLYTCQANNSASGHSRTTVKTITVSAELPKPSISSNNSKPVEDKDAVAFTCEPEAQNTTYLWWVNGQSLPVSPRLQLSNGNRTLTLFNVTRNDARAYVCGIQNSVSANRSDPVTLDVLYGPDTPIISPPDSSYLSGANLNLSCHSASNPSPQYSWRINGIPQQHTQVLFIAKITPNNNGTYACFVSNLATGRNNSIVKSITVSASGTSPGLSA

T4: In-house produced Avi-tagged CEACAM5 (UniProt P06731 35-685)
T4 chain: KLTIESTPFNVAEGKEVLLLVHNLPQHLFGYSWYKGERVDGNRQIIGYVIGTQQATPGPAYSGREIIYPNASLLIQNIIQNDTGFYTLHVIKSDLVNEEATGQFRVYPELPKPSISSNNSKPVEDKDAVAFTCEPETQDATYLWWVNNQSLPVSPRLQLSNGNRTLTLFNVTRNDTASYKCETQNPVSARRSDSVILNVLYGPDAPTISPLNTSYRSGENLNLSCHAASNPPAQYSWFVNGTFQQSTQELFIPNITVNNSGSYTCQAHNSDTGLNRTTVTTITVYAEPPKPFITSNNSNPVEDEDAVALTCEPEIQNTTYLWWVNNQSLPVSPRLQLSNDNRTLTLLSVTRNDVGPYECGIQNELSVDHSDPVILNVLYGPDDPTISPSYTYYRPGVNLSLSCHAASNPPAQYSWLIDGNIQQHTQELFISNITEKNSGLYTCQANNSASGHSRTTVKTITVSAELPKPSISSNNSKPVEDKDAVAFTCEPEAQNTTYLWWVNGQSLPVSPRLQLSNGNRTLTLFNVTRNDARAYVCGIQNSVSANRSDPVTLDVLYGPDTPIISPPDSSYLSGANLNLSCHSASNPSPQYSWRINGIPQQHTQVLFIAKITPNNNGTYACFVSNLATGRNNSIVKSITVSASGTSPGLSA


Legend:
Assay in all cases: BLI
[1] = molecular target: CEACAM5 N256A (UniProt P06731)
[2] = molecular target: CEACAM5 (UniProt P06731)
[3] = molecular target: CEACAM6 (UniProt P40199)
[4] = molecular target: CEACAM6 N256A (UniProt P40199)
[5] = molecular target: T1, In-house produced Avi-tagged N256A …
[6] = molecular target: T2, In-house produced Avi-tagged CEACAM6
[7] = molecular target: T3, In-house produced Avi-tagged N256A …
[8] = molecular target: T4, In-house produced Avi-tagged CEACAM5

Kd [1] | Kd [2] | Kd [3] | Kd [4] | Kd [5] | Kd [6] | Kd [7] | Kd [8] | Molecule
1.27 nM | 1.37 nM | – | – | – | – | – | – | Tusamitamab
0.401 nM | 0.321 nM | 0.126 nM | 0.217 nM | – | – | – | – | NEO-201
– | – | – | – | 3180 nM | 71.5 nM | > 200 nM | 63.8 nM | AB1 antibody (antibody, V domains shown) VH: QVQLVQSGAEVKKPGASVKVSCKASGNTFTSYVMHWVRQAPGQGLEWMGYINPYNDGTKYNEKFKGRVTMTRDTSTSTVYMELSSLRSEDTAVYYCARSTARATPYFYAMDYWGQGTLVTVSS VL: DIVMTQSPDSLAVSLGERATINCKSSQSLLWSVNQNSYLSWYQLKPGQPPKLLLYGASIRESGVPDRFSGSGSGTDFTLTISSLQAEDVAVYYCQHNHGSFLPYTFGGGTKLEIKR
– | – | – | – | 1.61 nM | 1.57 nM | 0.555 nM | 0.775 nM | EBC-123 (antibody, V domains shown) VH: QVQLVQSGAEVKKPGASVKVSCKASGNTFTSYVMHWVRQAPGQGLEWMGYINPYNDGTKYNEKFKGRVTMTRDTSTSTVYMELSSLRSEDTAVYYCARSTARATPYFYAMDYWGQGTLVTVSS VL: DIVMTQSPDSLAVSLGERATINCKSSQSLLWSVNQNSYLSWYQLKPGQPPKLLLYGASIRESGVPDRFSGSGSGTDFTLTISSLQAEDVAVYYCQHNHGSFLPYTFGGGTKLEIKR
